Test results reported in patent US20040019187A1 (published 2004).
Changes are numbered by the printed parent chain.

B1: MS-GPC-8-27-41 Fab (Fab, V domains shown)
VH: QVQLKESGPALVKPTQTLTLTCTFSGFSLSTSGVGVGWIRQPPGKALEWLALIDWDDDKYYSTSLKTRLTISKDTSKNQVVLTMTNMDPVDTATYYCARSPRYRGAFDYWGQGTLVTVSS
VL: DIVLTQPPSVSGAPGQRVTISCSGSESNIGNNYVQWYQQLPGTAPKLLIYDNNQRPSGVPDRFSGSKSGTSASLAITGLQSEDEADYYCQSYDMNVHVFGGGTKLTVLG
B2: MS-GPC-8-17 Fab (Fab, V domains shown)
VH: B1 VH
VL: B1 VL with E26S, N31S, Q35S, M94F, N95S, H97Y
B3: MS-GPC-8-6-2 Fab (Fab, V domains shown)
VH: B1 VH
VL: B1 VL with N31S, Q35H, M94Y, N95D, V96H, H97Y

Assays:
[1] = molecular target: T1, HLA-DR (DRA*0101/DRB1*0401) on the surface of PRIESS cells (human, UniProt P01903 26-254; P01911 30-266); assay: cell-based or functional assay
T1 MHC II alpha: not shown
T1 MHC II beta: not shown

[2] = molecular target: HLA-DR on the surface of LG-2 cells (human B-lymphoblastoid cell line) (human); assay: cell-based or functional assay

| Binder | EC50 of cell killing (nM) for bivalent agent; PRIESS cells; Fab cross-linked with anti-FLAG M2 [1] [nM] | EC50 of cell killing (nM) for bivalent agent; LG2 cells; Fab cross-linked with anti-FLAG M2 [2] [nM] |
| --- | --- | --- |
| B1 | 7.7 | 7.2 |
| B2 | 16 | – |
| B3 | 8 | – |
